According to paper PMC3553676:

Key:
Ku [1] = biological target: T1, Ku (Mycobacterium smegmatis, UniProt A0R3S7 1-318); assay: EMSA
T1 sequence: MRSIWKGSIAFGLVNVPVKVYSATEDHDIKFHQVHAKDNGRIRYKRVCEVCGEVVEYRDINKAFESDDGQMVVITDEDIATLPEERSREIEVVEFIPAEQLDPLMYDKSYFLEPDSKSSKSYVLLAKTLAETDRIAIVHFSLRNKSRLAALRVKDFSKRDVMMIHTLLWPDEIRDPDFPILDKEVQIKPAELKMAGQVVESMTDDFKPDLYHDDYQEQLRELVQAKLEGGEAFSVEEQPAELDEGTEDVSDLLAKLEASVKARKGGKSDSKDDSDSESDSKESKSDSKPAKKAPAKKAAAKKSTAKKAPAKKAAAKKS

Ku [2] = biological target: T1, Ku; assay: EMSA; remark: listed apart in the source

B1: 21/34 nt hairpin substrate (structured_DNA)
DNA 1: GTTTTTAGTTTATTGGGCGCG
DNA 2: CGCGCCCAGCTTTCCCAGCTAATAAACTAAAAAC
**Q.** Does B1 bind (Ku [1])?
**A.** Result: binds

B2: 37 bp DNA (dsDNA)
DNA 1: CCTAGGCTACACCTACTCTTTGTAAGAATTAAGCTTC
DNA 2: GAAGCTTAATTCTTACAAAGAGTAGGTGTAGCCTAGG
**Q.** Which Kd (Ku [2]) does the source give for B2 here?
**A.** Its Kd is 8.6 ± 0.5 nM.
